Test results published in patent publication US20250257332A1 (MONASH UNIVERSITY, published 2025).

Target: T1, recombinant mouse CCR5 (MyBioSource) (mouse, UniProt P51682 1-354, limits assumed)
T1 construct: Coated on ELISA plates at 20 nM; also called mrCCR5
Assay: competition ELISA: hNAMPTcif 0-100 nM against 100 nM hrNAMPT(1) on coated recombinant mouse CCR5
Protocol: hrNAMPT competitive binding to mrCCR5: ELISA plates (Medium binding, Greiner Bio-One) were coated with 1% BSA or 20 nM of recombinant mouse CCR5 (MyBioSource) in PBS overnight at 4° C. Then, wells were blocked for 1 h at room temperature with 1% BSA in PBS containing 0.05% Tween-20 (PBS-T). Wells were washed 3 times with PBS-T and further incubated with hNAMPTcif at increasing concentration (0 nM to 100 nM) for 1 h in PBS-T with 0.1% BSA containing 100 nM hrNAMPT (1) (Peprotech). Bound hrNAMPT (1) molecules were detected using a biotinylated antibody for NAMPT and HRP-streptavidin (Human PBEF/Visfatin DuoSet ELISA, R&D Systems). Signals obtained on BSA-coated wells were used to remove non-specific binding for each hrNAMPT concentrations to obtain specific binding values. Specific binding data were fitted by non-linear regression with Prism 7 to obtain the half maximal inhibitory concentration (IC50) of hNAMPTnif using A450nm=A450nmMin+(A450nmMax−A450nmMin)/(1+10\hat{ }(X-LogIC50)).

T1 sequence (P51682 whole entry): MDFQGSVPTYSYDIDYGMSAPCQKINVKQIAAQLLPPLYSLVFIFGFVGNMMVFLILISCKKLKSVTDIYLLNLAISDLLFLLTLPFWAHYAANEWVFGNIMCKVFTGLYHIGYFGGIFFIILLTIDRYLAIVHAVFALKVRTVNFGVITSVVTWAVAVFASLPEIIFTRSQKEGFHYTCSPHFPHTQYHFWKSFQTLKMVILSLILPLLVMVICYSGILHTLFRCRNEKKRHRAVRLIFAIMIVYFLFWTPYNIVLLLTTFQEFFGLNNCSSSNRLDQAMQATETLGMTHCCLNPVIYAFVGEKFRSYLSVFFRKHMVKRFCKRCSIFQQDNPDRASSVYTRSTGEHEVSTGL

IC50: 21.5 nM
B1: human NAMPT cytokine finger (hNAMPTcif; NAMPT402-491) (ligand)
chain: SYVVTNGLGINVFKDPVADPNKRSKKGRLSLHRTPAGNFVTLEEGKGDLEEYGQDLLHTVFKNGKVTKSYSFDEIRKNAQLNIELEAAHH
notes: also called hNAMPTnif
